Laboratory results from the supplement of paper PMC10567573.

B1: SOAT1 (parent)
chain: GVLILFLTFFAFLHCWLNAFAEML

Variants of: B1
Assay: protein stability index of a GFP-peptide fusion (GPS, HEK-293T) (PSI 1-6); higher = more stable
Details: c terminus: a fixed tail appended
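Further: lentivirally expressed fusions sorted by FACS into six bins by GFP to DsRed ratio, PSI derived from sequencing read proportions per bin multiplied by bin number.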

Variant	protein stability index
GVLILFETFFAFLHCWLNAFAEML [L7E]	3.09
GVLILFWTFFAFLHCWLNAFAEML [L7W]	4.58
GVLILFQTFFAFLHCWLNAFAEML [L7Q]	2.92
GVLILFRTFFAFLHCWLNAFAEML [L7R]	3.36
GVLILFCTFFAFLHCWLNAFAEML [L7C]	1.91
GVLILFPTFFAFLHCWLNAFAEML [L7P]	2.68
GVLILFFTFFAFLHCWLNAFAEML [L7F]	1.85
GVLILFDTFFAFLHCWLNAFAEML [L7D]	2.11
GVLILFATFFAFLHCWLNAFAEML [L7A]	3.84
GVLILFMTFFAFLHCWLNAFAEML [L7M]	2.38
GVLILFITFFAFLHCWLNAFAEML [L7I]	2.4
GVLILFGTFFAFLHCWLNAFAEML [L7G]	2.95
GVLILFNTFFAFLHCWLNAFAEML [L7N]	3.81
GVLILFKTFFAFLHCWLNAFAEML [L7K]	3.37
GVLILFVTFFAFLHCWLNAFAEML [L7V]	2.56
GVLILILTFFAFLHCWLNAFAEML [F6I]	2.63
GVLILALTFFAFLHCWLNAFAEML [F6A]	3.95
GVLILQLTFFAFLHCWLNAFAEML [F6Q]	3.85
GVLILVLTFFAFLHCWLNAFAEML [F6V]	3.25
GVLILMLTFFAFLHCWLNAFAEML [F6M]	1.35
GVLILTLTFFAFLHCWLNAFAEML [F6T]	2.02
GVLILRLTFFAFLHCWLNAFAEML [F6R]	3.83
GVLILHLTFFAFLHCWLNAFAEML [F6H]	2.63
GVLILDLTFFAFLHCWLNAFAEML [F6D]	1.78

Variant	protein stability index
GVLILSLTFFAFLHCWLNAFAEML [F6S]	2.73
GVLILYLTFFAFLHCWLNAFAEML [F6Y]	3.06
GVLILGLTFFAFLHCWLNAFAEML [F6G]	1.72
GVLILPLTFFAFLHCWLNAFAEML [F6P]	2.63
GVLILFLTFTAFLHCWLNAFAEML [F10T]	3.52
GVLILFLTFEAFLHCWLNAFAEML [F10E]	2.27
GVLILFLTFLAFLHCWLNAFAEML [F10L]	2.24
GVLILFLTFQAFLHCWLNAFAEML [F10Q]	4.33
GVLILFLTFCAFLHCWLNAFAEML [F10C]	2.63
GVLILFLTFKAFLHCWLNAFAEML [F10K]	2.35
GVLILFLTFVAFLHCWLNAFAEML [F10V]	2.75
GVLILFLTFSAFLHCWLNAFAEML [F10S]	2.2
GVLILFLTFMAFLHCWLNAFAEML [F10M]	1.67
GVLILFLTFRAFLHCWLNAFAEML [F10R]	3.84
GVLILFLTFYAFLHCWLNAFAEML [F10Y]	3.58
GVLILFLTFNAFLHCWLNAFAEML [F10N]	3.82
GVLILFLTFAAFLHCWLNAFAEML [F10A]	3.62
GVLILFLTFHAFLHCWLNAFAEML [F10H]	2.17
GVLILFLTFIAFLHCWLNAFAEML [F10I]	2.54
GVLILFLTAFAFLHCWLNAFAEML [F9A]	1.36
GVLILFLTMFAFLHCWLNAFAEML [F9M]	3.56
GVLILFLTIFAFLHCWLNAFAEML [F9I]	1.34
GVLILFLTKFAFLHCWLNAFAEML [F9K]	3.13
GVLILFLTVFAFLHCWLNAFAEML [F9V]	3.43

Variant	protein stability index
GVLILFLTTFAFLHCWLNAFAEML [F9T]	2.68
GVLILFLTDFAFLHCWLNAFAEML [F9D]	3.34
GVLILFLTPFAFLHCWLNAFAEML [F9P]	3.94
GVLILFLTCFAFLHCWLNAFAEML [F9C]	3.31
GVLILFLTNFAFLHCWLNAFAEML [F9N]	2.46
GVLILFLTHFAFLHCWLNAFAEML [F9H]	4.54
GVLILFLTEFAFLHCWLNAFAEML [F9E]	3.8
GVLILFLTQFAFLHCWLNAFAEML [F9Q]	2.33
GVLILFLTSFAFLHCWLNAFAEML [F9S]	1.94
GVLILFLTWFAFLHCWLNAFAEML [F9W]	3.04
GVLILFLTYFAFLHCWLNAFAEML [F9Y]	2.83
GVLILFLTGFAFLHCWLNAFAEML [F9G]	4.01
GVLILFLTFFHFLHCWLNAFAEML [A11H]	2.31
GVLILFLTFFSFLHCWLNAFAEML [A11S]	2.69
GVLILFLTFFLFLHCWLNAFAEML [A11L]	1.75
GVLILFLTFFVFLHCWLNAFAEML [A11V]	1.88
GVLILFLTFFFFLHCWLNAFAEML [A11F]	2.48
GVLILFLTFFYFLHCWLNAFAEML [A11Y]	2.09
GVLILFLTFFWFLHCWLNAFAEML [A11W]	1.64
GVLILFLTFFCFLHCWLNAFAEML [A11C]	1.84
GVLILFLTFFIFLHCWLNAFAEML [A11I]	3.38
GVLILFLTFFPFLHCWLNAFAEML [A11P]	3.29
GVLILFLTFFGFLHCWLNAFAEML [A11G]	1.15
GVLILFLTFFKFLHCWLNAFAEML [A11K]	2.37

Variant	protein stability index
GVLILFLTFFDFLHCWLNAFAEML [A11D]	2.82
GVLILFLTFFMFLHCWLNAFAEML [A11M]	3.5
GVLILFLTFFQFLHCWLNAFAEML [A11Q]	2.55
GVLILFLTFFTFLHCWLNAFAEML [A11T]	3.07
GVLILFLTFFRFLHCWLNAFAEML [A11R]	3.9
GVLILFLAFFAFLHCWLNAFAEML [T8A]	3.88
GVLILFLEFFAFLHCWLNAFAEML [T8E]	2.8
GVLILFLWFFAFLHCWLNAFAEML [T8W]	1.47
GVLILFLCFFAFLHCWLNAFAEML [T8C]	1.01
GVLILFLYFFAFLHCWLNAFAEML [T8Y]	3.57
GVLILFLIFFAFLHCWLNAFAEML [T8I]	2.42
GVLILFLQFFAFLHCWLNAFAEML [T8Q]	1.69
GVLILFLHFFAFLHCWLNAFAEML [T8H]	3.09
GVLILFLGFFAFLHCWLNAFAEML [T8G]	2.61
GVLILFLVFFAFLHCWLNAFAEML [T8V]	2.33
GVLILFLSFFAFLHCWLNAFAEML [T8S]	3.41
GVLILFLDFFAFLHCWLNAFAEML [T8D]	2.71
GVLILFLMFFAFLHCWLNAFAEML [T8M]	2.6
GVLILFLNFFAFLHCWLNAFAEML [T8N]	2.38
GVLILFLPFFAFLHCWLNAFAEML [T8P]	3.34
GVLILFLLFFAFLHCWLNAFAEML [T8L]	2.04
GVLILFLFFFAFLHCWLNAFAEML [T8F]	3.81
GVLILFLTFFAFLHGWLNAFAEML [C15G]	2.01
GVLILFLTFFAFLHDWLNAFAEML [C15D]	1.44

Variant	protein stability index
GVLILFLTFFAFLHFWLNAFAEML [C15F]	2.27
GVLILFLTFFAFLHEWLNAFAEML [C15E]	2.28
GVLILFLTFFAFLHAWLNAFAEML [C15A]	2.75
GVLILFLTFFAQLHCWLNAFAEML [F12Q]	2.71
GVLILFLTFFARLHCWLNAFAEML [F12R]	2.64
GVLILFLTFFADLHCWLNAFAEML [F12D]	2.27
GVLILFLTFFALLHCWLNAFAEML [F12L]	2.09
GVLILFLTFFASLHCWLNAFAEML [F12S]	3.35
GVLILFLTFFAILHCWLNAFAEML [F12I]	2.6
GVLILFLTFFAWLHCWLNAFAEML [F12W]	2.92
GVLILFLTFFAELHCWLNAFAEML [F12E]	3.48
GVLILFLTFFACLHCWLNAFAEML [F12C]	3.26
GVLILFLTFFAALHCWLNAFAEML [F12A]	2.65
GVLILFLTFFATLHCWLNAFAEML [F12T]	2.42
GVLILFLTFFAMLHCWLNAFAEML [F12M]	2.87
GVLILFLTFFAHLHCWLNAFAEML [F12H]	2.43
GVLILFLTFFANLHCWLNAFAEML [F12N]	3
GVLILFLTFFAKLHCWLNAFAEML [F12K]	3.54
GVLILFLTFFAVLHCWLNAFAEML [F12V]	1.84
GVLILFLTFFAYLHCWLNAFAEML [F12Y]	2.75
GVLILFLTFFAGLHCWLNAFAEML [F12G]	2.81
GVLILFLTFFAFPHCWLNAFAEML [L13P]	2.6
GVLILFLTFFAFIHCWLNAFAEML [L13I]	2.17
GVLILFLTFFAFWHCWLNAFAEML [L13W]	3.93

Variant	protein stability index
GVLILFLTFFAFDHCWLNAFAEML [L13D]	3.39
GVLILFLTFFAFTHCWLNAFAEML [L13T]	3.62
GVLILFLTFFAFRHCWLNAFAEML [L13R]	2.96
GVLILFLTFFAFNHCWLNAFAEML [L13N]	3.07
GVLILFLTFFAFFHCWLNAFAEML [L13F]	2.74
GVLILFLTFFAFSHCWLNAFAEML [L13S]	3.65
GVLILFLTFFAFCHCWLNAFAEML [L13C]	2.83
GVLILFLTFFAFVHCWLNAFAEML [L13V]	2.57
GVLILFLTFFAFYHCWLNAFAEML [L13Y]	2.48
GVLILFLTFFAFKHCWLNAFAEML [L13K]	3.57
GVLILFLTFFAFGHCWLNAFAEML [L13G]	2.86
GVLILFLTFFAFEHCWLNAFAEML [L13E]	3.16
GVLILFLTFFAFAHCWLNAFAEML [L13A]	4.05
GVLILFLTFFAFHHCWLNAFAEML [L13H]	2.45
GVLILFLTFFAFQHCWLNAFAEML [L13Q]	4.15
GVLIVFLTFFAFLHCWLNAFAEML [L5V]	1.91
GVLIWFLTFFAFLHCWLNAFAEML [L5W]	2.17
GVLIEFLTFFAFLHCWLNAFAEML [L5E]	3.38
GVLIKFLTFFAFLHCWLNAFAEML [L5K]	2.87
GVLIGFLTFFAFLHCWLNAFAEML [L5G]	2.13
GVLIYFLTFFAFLHCWLNAFAEML [L5Y]	3.59
GVLIDFLTFFAFLHCWLNAFAEML [L5D]	4.32
GVLITFLTFFAFLHCWLNAFAEML [L5T]	2.34
GVLICFLTFFAFLHCWLNAFAEML [L5C]	2.84

Variant	protein stability index
GVLIIFLTFFAFLHCWLNAFAEML [L5I]	2.23
GVLIAFLTFFAFLHCWLNAFAEML [L5A]	2.42
GVLIHFLTFFAFLHCWLNAFAEML [L5H]	3.32
GVLIRFLTFFAFLHCWLNAFAEML [L5R]	2.57
GVLIMFLTFFAFLHCWLNAFAEML [L5M]	1.72
GVLINFLTFFAFLHCWLNAFAEML [L5N]	3.7
GVLIQFLTFFAFLHCWLNAFAEML [L5Q]	3.75
GVLILFLTFFAFLFCWLNAFAEML [H14F]	1.52
GVLILFLTFFAFLACWLNAFAEML [H14A]	2.22
GVLILFLTFFAFLDCWLNAFAEML [H14D]	3.15
GVLILFLTFFAFLRCWLNAFAEML [H14R]	2.68
GVLILFLTFFAFLICWLNAFAEML [H14I]	1.95
GVLILFLTFFAFLGCWLNAFAEML [H14G]	2.45
GVLILFLTFFAFLYCWLNAFAEML [H14Y]	2.09
GVLILFLTFFAFLKCWLNAFAEML [H14K]	2.17
GVLILFLTFFAFLVCWLNAFAEML [H14V]	1.48
GVLILFLTFFAFLPCWLNAFAEML [H14P]	2.06
GVLILFLTFFAFLCCWLNAFAEML [H14C]	2.17
GVLILFLTFFAFLMCWLNAFAEML [H14M]	2.07
GVLILFLTFFAFLWCWLNAFAEML [H14W]	2.17
GVLILFLTFFAFLECWLNAFAEML [H14E]	2.94
GVLILFLTFFAFLTCWLNAFAEML [H14T]	2.06
GVLILFLTFFAFLQCWLNAFAEML [H14Q]	2.47
GVLILFLTFFAFLLCWLNAFAEML [H14L]	1.87

Variant	protein stability index
GVLILFLTFFAFLSCWLNAFAEML [H14S]	2.02
GVLWLFLTFFAFLHCWLNAFAEML [I4W]	2.43
GVLRLFLTFFAFLHCWLNAFAEML [I4R]	3.74
GVLPLFLTFFAFLHCWLNAFAEML [I4P]	2.26
GVLLLFLTFFAFLHCWLNAFAEML [I4L]	2.76
GVLELFLTFFAFLHCWLNAFAEML [I4E]	2.23
GVLSLFLTFFAFLHCWLNAFAEML [I4S]	2.66
GVLVLFLTFFAFLHCWLNAFAEML [I4V]	2.92
GVLKLFLTFFAFLHCWLNAFAEML [I4K]	1.43
GVLDLFLTFFAFLHCWLNAFAEML [I4D]	1.73
GVLYLFLTFFAFLHCWLNAFAEML [I4Y]	3.33
GVLALFLTFFAFLHCWLNAFAEML [I4A]	2.03
GVLQLFLTFFAFLHCWLNAFAEML [I4Q]	4.98
GVLFLFLTFFAFLHCWLNAFAEML [I4F]	1.75
GVLGLFLTFFAFLHCWLNAFAEML [I4G]	4.32
GVLNLFLTFFAFLHCWLNAFAEML [I4N]	3.78
GVLCLFLTFFAFLHCWLNAFAEML [I4C]	2.42
GVLMLFLTFFAFLHCWLNAFAEML [I4M]	3.03
GVLTLFLTFFAFLHCWLNAFAEML [I4T]	3.27
GVLHLFLTFFAFLHCWLNAFAEML [I4H]	1.85
